Source: patent US20160237119A1 (UNIVERSITY OF TOKYO, published 2016)
Read-outs that look alike come from different tables or passages of the source. Bridges are numbered along the chain shown (N, C = ends). Roman numbers before positions name the chains, in order. Primed or numbered codes have the meaning given here. Where no end group is shown, it is not given here. [ ]: non-standard residue; d: D form. NMeW = CN[C@@H](Cc1c[nH]c2ccccc12)C(=O)O; NMeR = CN[C@@H](CCCNC(=N)N)C(=O)O; NMeF = CN[C@@H](Cc1ccccc1)C(=O)O; NMeT = CN[C@H](C(=O)O)[C@@H](C)O; NMeE = CN[C@@H](CCC(=O)O)C(=O)O; NMeQ = CN[C@@H](CCC(N)=O)C(=O)O; NMeD = CN[C@@H](CC(=O)O)C(=O)O; NMeN = CN[C@@H](CC(N)=O)C(=O)O; NMeV = CN[C@H](C(=O)O)C(C)C; NMeC = CN[C@@H](CS)C(=O)O; BMH′ = not defined here

B1: D4-3NMe (peptide)
peptide: {CH2CO}-YRQFN[NMeR]RTHEVWNLD[NMeC]G
modifications: thioether N-16
notes: also called NMe (N6 + N16); N-methylated D4-3
B2: N2, N-methylated D4-3 peptide (peptide)
peptide: {CH2CO}-Y[NMeR]QFNRRTHEVWNLDCG
modifications: thioether N-16 (inferred)
B3: D5-4 dimeric peptide, linker Bis-MAL-PEG3 (peptide)
peptide 1: [dY]WYYAWDQTYKAFPCG
peptide 2: [dY]WYYAWDQTYKAFPCG
modifications: thioether I:N-I:15, II:N-II:15 via Ac; not fully specified (N-terminus, bridges); also: dimer: two copies joined by Bis-MAL-PEG3 through an added C-terminal Cys (handle not in letters)
notes: Two macrocyclic peptides joined through their C-terminal Cys by Bis-MAL-PEG3; also called D5-4 Bis-MAL-PEG3; not shown: C-terminal handle of each copy (spacer residue plus Cys)
B4: D4-3-N8 (peptide)
peptide: {CH2CO}-YRQFNRR[NMeT]HEVWNLDCG
modifications: thioether N-16
B5: N16, N-methylated D4-3 peptide (peptide)
peptide: {CH2CO}-YRQFNRRTHEVWNLD[NMeC]G
modifications: thioether N-16 (inferred)
B6: D4-3 dimeric peptide, linker Bis-MAL-PEG11 (peptide)
peptide: {CH2CO}-YRQFNRRTHEVWNLDCGC(Bis‑MAL‑PEG11)
modifications: thioether N-16; not fully specified (residue 1); also: dimer: two copies joined by Bis-MAL-PEG11 at Cys18
notes: Two macrocyclic peptides joined through their C-terminal Cys by Bis-MAL-PEG11; also called D4-3 Bis-MAL-PEG11
B7: D4-3scr dimeric peptide, linker BMH (peptide)
peptide: {CH2CO}-YERVNHLFRNQTWDRCGC(BMH′)
modifications: thioether N-16; also: dimer: two copies joined by BMH at Cys18
notes: Negative control dimer; also called D4-3scr BMH
B8: N10, N-methylated D4-3 peptide (peptide)
peptide: {CH2CO}-YRQFNRRTH[NMeE]VWNLDCG
modifications: thioether N-16
B9: D4-3 dimeric peptide, linker Bis-MAL-PEG3 (peptide)
peptide: {CH2CO}-YRQFNRRTHEVWNLDCGC(Bis‑MAL‑PEG3)
modifications: thioether N-16; not fully specified (residue 1); also: dimer: two copies joined by Bis-MAL-PEG3 at Cys18
notes: Two macrocyclic peptides joined through their C-terminal Cys by Bis-MAL-PEG3; also called D4-3 Bis-MAL-PEG3
B10: N3, N-methylated D4-3 peptide (peptide)
peptide: {CH2CO}-YR[NMeQ]FNRRTHEVWNLDCG
modifications: thioether N-16 (inferred)
B11: D4-3-N6 (peptide)
peptide: {CH2CO}-YRQFN[NMeR]RTHEVWNLDCG
modifications: thioether N-16
B12: L5-2 (peptide)
peptide: {CH2CO}-YISWNEFNSPNWRFITCG
modifications: thioether N-17
notes: also called L5-2 peptide; L5-2 Monomer
B13: D4-3 (peptide)
peptide: {CH2CO}-YRQFNRRTHEVWNLDCG
modifications: thioether N-16; not fully specified
notes: also called D4-3 peptide; D4-3 Monomer
B14: D4-3NMe dimeric peptide, linker Bis-MAL-PEG11 (peptide)
peptide: {CH2CO}-YRQFN[NMeR]RTHEVWNLD[NMeC]GC(Bis‑MAL‑PEG11)
modifications: thioether N-16; also: dimer via Bis-MAL-PEG11
notes: also called D4-3NMe Bis-MAL-PEG11; dimerized N-methylated D4-3 peptide
B15: D4-3-N7 (peptide)
peptide: {CH2CO}-YRQFNR[NMeR]THEVWNLDCG
modifications: thioether N-16
B16: D5-4 dimeric peptide, linker Bis-MAL-PEG11 (peptide)
peptide 1: [dY]WYYAWDQTYKAFPCG
peptide 2: [dY]WYYAWDQTYKAFPCG
modifications: thioether I:N-I:15, II:N-II:15 via Ac; not fully specified (N-terminus, bridges); also: dimer: two copies joined by Bis-MAL-PEG11 through an added C-terminal Cys (handle not in letters)
notes: Two macrocyclic peptides joined through their C-terminal Cys by Bis-MAL-PEG11; also called D5-4 Bis-MAL-PEG11; not shown: C-terminal handle of each copy (spacer residue plus Cys)
B17: D5-4 dimeric peptide, linker BMH (peptide)
peptide 1: [dY]WYYAWDQTYKAFPCG
peptide 2: [dY]WYYAWDQTYKAFPCG
modifications: thioether I:N-I:15, II:N-II:15 via Ac; not fully specified (N-terminus, bridges); also: dimer: two copies joined by BMH through an added C-terminal Cys (handle not in letters)
notes: Two macrocyclic peptides joined through their C-terminal Cys by BMH; also called D5-4 BMH; not shown: C-terminal handle of each copy (spacer residue plus Cys)
B18: D5-4 (peptide)
peptide: {CH2CO}-[dY]WYYAWDQTYKAFPCG
modifications: thioether N-15
notes: also called D5-4 peptide; D5-4 Monomer
B19: D4-3scr (peptide)
peptide: {CH2CO}-YERVNHLFRNQTWDRCG
modifications: thioether N-16
notes: Negative control; also called negative control peptide
B20: N14, N-methylated D4-3 peptide (peptide)
peptide: {CH2CO}-YRQFNRRTHEVWNLDCG
modifications: thioether N-16; not fully specified (residues 1, 14); also: one N-methylated residue, position given only by label N14
B21: N4, N-methylated D4-3 peptide (peptide)
peptide: {CH2CO}-YRQ[NMeF]NRRTHEVWNLDCG
modifications: thioether N-16 (inferred)
B22: D4-3 dimeric peptide, linker BMH (peptide)
peptide: {CH2CO}-YRQFNRRTHEVWNLDCGC(BMH′)
modifications: thioether N-16; not fully specified (residue 1); also: dimer: two copies joined by BMH at Cys18
notes: Two macrocyclic peptides joined through their C-terminal Cys by BMH; also called D4-3 BMH
B23: N13, N-methylated D4-3 peptide (peptide)
peptide: {CH2CO}-YRQFNRRTHEVW[NMeN]LDCG
modifications: thioether N-16
B24: N12, N-methylated D4-3 peptide (peptide)
peptide: {CH2CO}-YRQFNRRTHEV[NMeW]NLDCG
modifications: thioether N-16
B25: N5, N-methylated D4-3 peptide (peptide)
peptide: {CH2CO}-YRQF[NMeN]RRTHEVWNLDCG
modifications: thioether N-16 (inferred)
B26: N15, N-methylated D4-3 peptide (peptide)
peptide: {CH2CO}-YRQFNRRTHEVWNL[NMeD]CG
modifications: thioether N-16 (inferred)
B27: N11, N-methylated D4-3 peptide (peptide)
peptide: {CH2CO}-YRQFNRRTHE[NMeV]WNLDCG
modifications: thioether N-16

Legend:
[1] = target: T1, c-Met-Fc chimera protein (UniProt P08581 25-932, limits assumed); test: SPR (Biacore), c-Met-Fc captured by anti-IgG on CM5, single-cycle kinetics
T1 construct: Captured on the SPR chip by an anti-IgG antibody; not shown: Fc part
Method: (§1) As a sensor chip, Sensor Chip CM5 was used and an anti-IgG antibody was immobilized on a measurement lane and a control lane by using Human Antibody Capture Kit.
(§2) On the measurement lane was immobilized c-Met-Fc, while on the control lane was immobilized Fc protein.
(§3) As a running buffer, HBS-EP+ buffer containing 0.1% DMSO was used and a dissociation constant of the thioether macrocyclic peptide was calculated at 5 different concentrations by using the single-kinetics method.

[2] = target: T1, c-Met-Fc chimera protein; test: as above; remark: listed apart in the source
Method: as §1, §2, §3

[3] = target: T1, c-Met-Fc chimera protein; test: SPR presumed (Biacore as in 9-1; method not given), c-Met-Fc on chip
[4] = target: T1, c-Met-Fc chimera protein; test: as above; remark: listed apart in the source

T1 sequence (P08581 25-932 limits assumed, change not shown): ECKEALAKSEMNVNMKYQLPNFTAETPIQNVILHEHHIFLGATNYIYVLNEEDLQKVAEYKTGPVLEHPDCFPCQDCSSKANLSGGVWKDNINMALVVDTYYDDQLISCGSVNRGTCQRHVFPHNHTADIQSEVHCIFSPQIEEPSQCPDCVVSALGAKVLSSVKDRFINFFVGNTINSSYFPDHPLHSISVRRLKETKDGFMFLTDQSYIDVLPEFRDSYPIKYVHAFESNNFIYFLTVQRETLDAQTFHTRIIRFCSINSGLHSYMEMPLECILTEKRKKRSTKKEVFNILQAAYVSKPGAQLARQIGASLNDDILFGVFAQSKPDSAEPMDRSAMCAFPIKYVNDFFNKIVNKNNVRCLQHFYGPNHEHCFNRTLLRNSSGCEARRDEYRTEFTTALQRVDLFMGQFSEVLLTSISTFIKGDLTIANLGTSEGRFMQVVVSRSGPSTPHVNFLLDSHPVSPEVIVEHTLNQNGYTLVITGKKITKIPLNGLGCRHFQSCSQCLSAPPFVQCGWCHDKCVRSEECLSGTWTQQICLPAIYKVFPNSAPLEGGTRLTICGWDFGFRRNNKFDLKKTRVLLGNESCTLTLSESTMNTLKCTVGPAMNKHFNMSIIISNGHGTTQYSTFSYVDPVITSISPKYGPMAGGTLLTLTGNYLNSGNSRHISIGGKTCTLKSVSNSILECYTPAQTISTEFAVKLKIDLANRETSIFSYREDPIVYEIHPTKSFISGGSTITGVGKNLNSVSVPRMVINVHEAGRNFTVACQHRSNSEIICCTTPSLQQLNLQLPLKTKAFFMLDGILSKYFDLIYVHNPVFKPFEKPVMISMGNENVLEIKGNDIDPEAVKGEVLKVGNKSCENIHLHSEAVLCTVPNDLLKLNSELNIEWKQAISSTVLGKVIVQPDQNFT

| Binder | Kd [2] [nM] | koff [2] [s⁻¹] | kon [2] [M⁻¹ s⁻¹] | Kd [4] [nM] | koff [4] [s⁻¹] | kon [4] [M⁻¹ s⁻¹] | further results |
| --- | --- | --- | --- | --- | --- | --- | --- |
| B1 | 5.2 | 0.0021 | 390000 |  |  |  | Kd [1]: 5.2 nM; koff [1]: 0.0021 s⁻¹; kon [1]: 390000 M⁻¹ s⁻¹; Kd [3]: 5.2 nM; koff [3]: 0.0021 s⁻¹; kon [3]: 390000 M⁻¹ s⁻¹ |
| B2 |  |  |  | 14 | 0.01 | 710000 |  |
| B3 | 4.7 | 0.00054 | 120000 |  |  |  |  |
| B4 |  |  |  | 220 | 0.006 | 27000 |  |
| B5 |  |  |  | 10 | 0.01 | 980000 | Kd [3]: 10 nM; koff [3]: 0.01 s⁻¹; kon [3]: 980000 M⁻¹ s⁻¹ |
| B6 | 0.9 | 0.0011 | 1.2e+06 |  |  |  |  |
| B7 |  |  |  |  |  |  | binding result [2]: no binding |
| B8 |  |  |  | 300 | 0.0075 | 25000 |  |
| B9 | 0.64 | 0.0007 | 1.1e+06 |  |  |  |  |
| B10 |  |  |  | 120 | 0.0031 | 27000 |  |
| B11 |  |  |  | 34 | 0.0041 | 120000 | Kd [3]: 34 nM; koff [3]: 0.0041 s⁻¹; kon [3]: 120000 M⁻¹ s⁻¹ |
| B12 | 5.4 | 0.012 | 2.3e+06 |  |  |  | Kd [1]: 5.4 nM; koff [1]: 0.012 s⁻¹; kon [1]: 2.3e+06 M⁻¹ s⁻¹ |
| B13 | 3.4 | 0.008 | 2.4e+06 | 8.5 | 0.011 | 1.3e+06 | Kd [1]: 3.4 nM; koff [1]: 0.008 s⁻¹; kon [1]: 2.4e+06 M⁻¹ s⁻¹; Kd [3]: 8.5 nM; koff [3]: 0.011 s⁻¹; kon [3]: 1.3e+06 M⁻¹ s⁻¹ |
| B14 | 0.81 | 0.0004 | 490000 |  |  |  |  |
| B15 |  |  |  | 130 |  |  |  |
| B16 | 2.1 | 0.011 | 5.3e+06 |  |  |  |  |
| B17 | 12 | 0.00055 | 46000 |  |  |  |  |
| B18 | 4.6 | 0.021 | 4.5e+06 |  |  |  | Kd [1]: 4.6 nM; koff [1]: 0.021 s⁻¹; kon [1]: 4.5e+06 M⁻¹ s⁻¹ |
| B19 |  |  |  |  |  |  | binding result [1]: no binding |
| B20 |  |  |  | 290 | 0.0059 | 21000 |  |
| B21 |  |  |  | 79 | 0.0096 | 120000 |  |
| B22 | 0.45 | 0.00091 | 2e+06 |  |  |  |  |
| B23 |  |  |  | 33 | 0.0026 | 78000 |  |
| B24 |  |  |  | 160 | 0.0086 | 55000 |  |
| B25 |  |  |  | 200 | 0.0039 | 19000 |  |
| B26 |  |  |  | 160 | 0.046 | 300000 |  |
| B27 |  |  |  | 350 | 0.0051 | 15000 |  |
